Source: PMC6412629, “β-Galactosidase from Lactobacillus helveticus DSM 20075: Biochemical Characterization and Recombinant Expression for Applications in Dairy Industry” (International Journal of Molecular Sciences, 2019)

Substrate: O=[N+]([O-])c1ccccc1O[C@@H]1O[C@H](CO)[C@H](O)[C@H](O)[C@H]1O
Experiment: purified protein
Type: biochemical, Lactobacillus helveticus
Details: 50 mM sodium phosphate pH 6.5, 30 °C, oNPG 0.5-22 mM, substrate inhibition seen

B1: recombinant β-galactosidase from L. helveticus (EcoliBL21Lhβ-gal), LacLM (Lactobacillus helveticus; Q7WTB4:Q2E) (protein)
chain 1: MEANINWLDNPEVFRVNQLPAHSDHPFFRDYREWQKQHSSYQQSLNGKWKFHFSANPMDRPQDFYQRDFDSSNFDSIPVPSEIELSNYTQNQYINVLFPWEGKIFRRPAYALDPNDHEEGSFSKGADNTVGSYLKRFDLSSALIGKDVHIKFEGVEQAMYVWLNGHFVGYAEDSFTPSEFDLTPYIQDKDNLLAVEVFKHSTASWLEDQDMFRFSGIFRSVELLGIPATHLMDMDLKPRVADNYQDGIFNLKLHFIGKKAGSFHLLVKDIKGHTLLEKNEDIKENVQINNEKFENVHLWNNHDPYLYQLLIEVYDEQQNLLELIPFQFGFRRIEISPEKVVLLNGKRLIINGVNRHEWDAKRGRSITMSDMTTDINTFKENNINAVRTCHYPNQIPWYYLCDQNGIYVMAENNLESHGTWQKMGEIEPSDNVPGSIPQWKEAVIDRARINYETFKNHTSILFWSLGNESYAGDNIIAMNEFYKSHDDTRLVHYEGVVHRPELKDKISDVESCMYLPPKKVEEYLQNDPPKPFMECEYMHDMGNSDGGMGSYIKLLDKYPQYFGGFIWDFIDQALLVHDEISGHDVLRYGGDFDDRHSDYEFSGDGLMFADRTPKPAMQEVRYYYGLHK
chain 2: MDYTNNQLHIIYGDATLGVNGKDFQYIFSYERGGLESLKVHGKEWLYRVPTPTFWRATTDNDRGSGFNLKAAQWLGADMFTKCTDIHLKVDRHDFAELPIAPFNNKFSNHEYAKSAEISFTYQTLTTPATNAKIIYNIDDVGHIKVTMRYYGKKGLPPLPVIGIRLIMPTAATGFDYEGLSGETYPDRMAGAKEGKFHIDGLPVTEYLVPQENGMHMQTKKLTINRETTQNNVDRTNEKFSLSIQQAEKPFNFSCLPYTAEELENATHIEELPLVRRTVLVIAGAVRGVGGIDSWGTDVESAYHINPELDHEFSFILN
notes: overlapping lacLM genes in pET-21d(+) (NcoI/XhoI); C-terminal His-tag (vector), follows lacM end; E. coli BL21 Star (DE3), HisTrap purified; heterodimer ~109 kDa
Km: 1400 ± 300 µM | Vmax: 476 µmol/min/mg | kcat: 865 ± 120 s⁻¹ | kcat/Km: 618000 M⁻¹ s⁻¹
